Experimental data reported in PMC7762974, “Recombination and Pol ζ Rescue Defective DNA Replication upon Impaired CMG Helicase—Pol ε Interaction” (International Journal of Molecular Sciences, 2020).

B1: GINS complex (Psf1, Psf2, Psf3, Halotag-Sld5), wild type (complex, S. cerevisiae)
chain 1: MYGDLGNKLVLEAKRTKQLYARSNQDVNLPMYHEDIIRNILKEVSNLRKNTEYLKEQQQLGMLDDKVAKCQYFVTLLCMERNKRCLLAYQRLRTDILDSMAWNNNGLDLMSSITFSQQDTNNLSHQEQEYLKEYCDLITDLKSGDLVDIDLSGSLVPPSDVFIDVRVLKDAGEIQTEYGVFNLIKDSQFFVRQSDVERLIQQGYLQKI
chain 2: MSLPAHLQQTFSPEEIQFIVENEPIKIFPRITTRQKIRGDDRGTGNHTRWQLITTDDKALNNMVAMRSTEVVLWIALLLKQQSKCSIVAPQWLTTKELDRKIQYEKTHPDRFSELPWNWLVLARILFNKAKDDFHDPIHELRGKIQDLREIRQIKVLKGLKYLNESHLQLDNLSLLEINELRPFITEIMDKLREIHTASLTAGTENDEEEFNI
chain 3: MGYYDIDDVLADGTEFPCKFQYDIPGLGYLENNPGRPITKNTKLSLPLWLARILAIVGGDEALVDEEPVPFVELLPPDMFSTKVMNAIKTDPVALDLHSINSHFFSLAIKWIMLFSEKELANVVSELLLQRAQELNHHASSLSIDLNADSTGKNSANTNIATSTFLLKLEEMEKEIYKKSHESYKDTKRWMFKK
chain 4: MDINIDDILAELDKETTAVDSTKITQGSSSTTHRDANTIVGSSLDLNDKTQIYVSPQQDFSDLMKSWKNERCSPELLPYPHQLMKRLLNRISMQSQLIENISMGFLDMQNASNANPPMPNESKLPLLCMETELERLKFVIRSYIRCRLSKIDKFSLYLRQLNEDENSLISLTDLLSKDEIKYHDTHSLIWLKLVNDSILKYMPEELQAINDTEGSVNMIDEPDWNKFVFIHVNGPPDGKWNEDPLLQENEFGKPCYTVTIPDLKEEVELTIGSIYVMRYEVIRDLLRDDKVALI
notes: Psf1 subunit of GINS, S. cerevisiae; Psf2 subunit of GINS, S. cerevisiae; Psf3 subunit of GINS, S. cerevisiae; Sld5 subunit of GINS, S. cerevisiae; also called GINS_(Psf1); WT; source: purified as described previously [40]; copies: + + +

Key:
Experiment in all cases: pull-down; 2 pmol Halo-Sld5 GINS fixed on 10 µL HaloLink Resin, blocked with casein and BSA; 2 pmol Pol ε with 2 mg/mL BSA in 400 µL 25 mM HEPES-KOH pH 7.6, 200 mM K-acetate, 2 mM Mg-acetate, 10% glycerol, 0.1% Tween 20, 0.01% NP-40, 30 °C for 30 min; blot for Dpb2 and Psf2, band intensity compared to Psf1
[1] = target: GINS complex with the Psf1-1 mutant subunit (R84G), Psf2, Psf3, Halotag-Sld5 (S. cerevisiae) (UniProt Q12488)
[2] = target: GINS complex with the Psf1-100 mutant subunit (V161A, F162A, I163A, D164A), Psf2, Psf3, Halotag-Sld5 (S. cerevisiae) (UniProt Q12488)
[3] = target: T1, DNA polymerase epsilon (Pol ε) comprising Pol2, Dpb2, Dpb3 and Dpb4 subunits (S. cerevisiae, UniProt P21951 1-2222; P24482 1-689; P27344 1-201; Q04603 1-196); details: both partners purified
T1 construct: Pol2, catalytic subunit of DNA polymerase epsilon, S. cerevisiae; Dpb2, noncatalytic subunit of DNA polymerase epsilon, S. cerevisiae; Dpb3, noncatalytic subunit of DNA polymerase epsilon, S. cerevisiae; Dpb4, noncatalytic subunit of DNA polymerase epsilon, S. cerevisiae; source: purified as described previously [40]; copies: + + +
T1 sequence (P21951 whole entry, chain 1 of 4): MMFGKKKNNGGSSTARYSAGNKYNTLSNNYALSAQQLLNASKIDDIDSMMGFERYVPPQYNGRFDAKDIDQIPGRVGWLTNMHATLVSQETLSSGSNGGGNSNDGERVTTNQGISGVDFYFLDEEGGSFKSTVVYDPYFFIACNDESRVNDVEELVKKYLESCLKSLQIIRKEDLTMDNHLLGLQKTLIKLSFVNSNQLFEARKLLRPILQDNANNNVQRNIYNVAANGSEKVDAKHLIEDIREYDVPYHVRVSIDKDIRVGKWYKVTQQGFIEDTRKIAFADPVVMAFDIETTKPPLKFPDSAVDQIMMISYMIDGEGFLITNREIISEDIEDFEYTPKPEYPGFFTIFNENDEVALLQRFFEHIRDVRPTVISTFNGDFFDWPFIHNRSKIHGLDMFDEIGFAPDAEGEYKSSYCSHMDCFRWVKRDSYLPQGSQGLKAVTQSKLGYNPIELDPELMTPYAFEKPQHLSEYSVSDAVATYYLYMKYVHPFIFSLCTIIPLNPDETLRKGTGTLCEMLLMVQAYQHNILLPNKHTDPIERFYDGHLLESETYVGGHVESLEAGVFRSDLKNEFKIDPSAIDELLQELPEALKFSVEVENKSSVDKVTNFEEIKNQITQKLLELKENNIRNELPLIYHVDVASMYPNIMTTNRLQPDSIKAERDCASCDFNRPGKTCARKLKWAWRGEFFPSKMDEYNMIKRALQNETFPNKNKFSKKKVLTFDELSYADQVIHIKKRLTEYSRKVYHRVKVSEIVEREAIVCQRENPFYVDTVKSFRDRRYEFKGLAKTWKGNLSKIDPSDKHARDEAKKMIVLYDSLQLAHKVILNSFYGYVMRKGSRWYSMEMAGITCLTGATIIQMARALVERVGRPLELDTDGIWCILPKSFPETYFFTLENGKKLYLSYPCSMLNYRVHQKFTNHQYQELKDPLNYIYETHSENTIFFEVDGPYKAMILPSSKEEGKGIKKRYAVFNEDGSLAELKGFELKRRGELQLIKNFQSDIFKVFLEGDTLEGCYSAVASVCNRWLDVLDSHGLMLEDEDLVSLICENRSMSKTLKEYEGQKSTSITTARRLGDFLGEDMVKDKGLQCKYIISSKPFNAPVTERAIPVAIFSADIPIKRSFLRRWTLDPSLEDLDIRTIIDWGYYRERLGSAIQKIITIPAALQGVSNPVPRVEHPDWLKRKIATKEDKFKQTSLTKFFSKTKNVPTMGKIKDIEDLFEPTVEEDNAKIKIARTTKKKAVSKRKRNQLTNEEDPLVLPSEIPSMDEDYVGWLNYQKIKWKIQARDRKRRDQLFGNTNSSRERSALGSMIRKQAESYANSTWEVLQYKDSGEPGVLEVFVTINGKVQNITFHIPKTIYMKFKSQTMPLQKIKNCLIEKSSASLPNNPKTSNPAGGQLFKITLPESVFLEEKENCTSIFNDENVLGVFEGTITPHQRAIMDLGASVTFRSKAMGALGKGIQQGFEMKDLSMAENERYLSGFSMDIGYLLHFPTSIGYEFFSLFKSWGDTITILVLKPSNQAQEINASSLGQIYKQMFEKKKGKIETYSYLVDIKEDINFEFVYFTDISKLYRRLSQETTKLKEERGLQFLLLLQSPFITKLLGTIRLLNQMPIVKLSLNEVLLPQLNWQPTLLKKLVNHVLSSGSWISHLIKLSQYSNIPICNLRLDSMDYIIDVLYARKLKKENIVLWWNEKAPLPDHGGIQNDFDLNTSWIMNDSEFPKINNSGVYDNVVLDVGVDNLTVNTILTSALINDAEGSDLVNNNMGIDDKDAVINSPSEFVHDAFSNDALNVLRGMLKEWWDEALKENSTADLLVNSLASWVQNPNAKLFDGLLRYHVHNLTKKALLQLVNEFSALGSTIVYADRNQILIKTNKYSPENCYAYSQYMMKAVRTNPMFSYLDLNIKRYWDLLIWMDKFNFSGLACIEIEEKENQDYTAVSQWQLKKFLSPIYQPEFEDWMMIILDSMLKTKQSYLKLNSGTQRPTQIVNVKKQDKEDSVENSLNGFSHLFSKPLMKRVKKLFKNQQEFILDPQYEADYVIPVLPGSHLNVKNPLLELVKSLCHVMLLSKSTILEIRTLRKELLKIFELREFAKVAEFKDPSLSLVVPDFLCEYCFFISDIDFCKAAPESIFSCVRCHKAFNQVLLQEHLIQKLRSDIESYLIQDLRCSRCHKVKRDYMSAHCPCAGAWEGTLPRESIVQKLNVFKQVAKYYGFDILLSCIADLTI
T1 sequence (P24482 whole entry, chain 2 of 4): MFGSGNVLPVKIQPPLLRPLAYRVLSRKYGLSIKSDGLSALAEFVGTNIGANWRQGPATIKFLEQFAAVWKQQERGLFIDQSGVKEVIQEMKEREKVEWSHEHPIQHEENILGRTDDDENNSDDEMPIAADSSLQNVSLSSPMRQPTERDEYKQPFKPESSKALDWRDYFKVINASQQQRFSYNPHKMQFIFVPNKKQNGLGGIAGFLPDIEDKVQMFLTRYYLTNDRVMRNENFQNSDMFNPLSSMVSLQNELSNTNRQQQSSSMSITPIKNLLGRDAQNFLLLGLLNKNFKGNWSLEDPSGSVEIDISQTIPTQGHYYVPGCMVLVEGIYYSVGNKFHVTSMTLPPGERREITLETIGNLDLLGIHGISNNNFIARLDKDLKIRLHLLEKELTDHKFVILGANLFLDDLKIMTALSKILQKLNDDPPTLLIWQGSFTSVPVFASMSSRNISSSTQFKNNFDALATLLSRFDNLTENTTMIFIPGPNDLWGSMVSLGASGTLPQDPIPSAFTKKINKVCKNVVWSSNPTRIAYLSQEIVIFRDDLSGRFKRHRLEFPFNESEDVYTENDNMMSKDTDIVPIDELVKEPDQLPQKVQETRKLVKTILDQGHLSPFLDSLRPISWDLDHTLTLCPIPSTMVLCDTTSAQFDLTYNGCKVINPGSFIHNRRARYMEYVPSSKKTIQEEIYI
T1 sequence (P27344 whole entry, chain 3 of 4): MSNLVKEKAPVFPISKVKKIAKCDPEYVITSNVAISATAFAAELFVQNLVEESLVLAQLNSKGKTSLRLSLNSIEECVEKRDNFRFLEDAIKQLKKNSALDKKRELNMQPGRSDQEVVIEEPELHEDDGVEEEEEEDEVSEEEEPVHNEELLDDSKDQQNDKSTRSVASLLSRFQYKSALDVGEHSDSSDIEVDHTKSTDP
T1 sequence (Q04603 whole entry, chain 4 of 4): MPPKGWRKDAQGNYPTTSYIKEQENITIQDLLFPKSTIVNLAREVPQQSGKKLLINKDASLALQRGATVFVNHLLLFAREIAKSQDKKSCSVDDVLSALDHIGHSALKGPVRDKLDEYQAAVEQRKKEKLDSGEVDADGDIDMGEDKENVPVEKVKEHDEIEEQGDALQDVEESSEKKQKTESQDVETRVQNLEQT

| Molecule | band intensity compared to Psf1 (relative to Psf1) [1] | band intensity compared to Psf1 (relative to Psf1) [2] | binding result [3] |
| --- | --- | --- | --- |
| DNA polymerase epsilon (Pol ε) comprising Pol2, Dpb2, Dpb3 and Dpb4 subunits, P21951 1-2222; P24482 1-689; P27344 1-201; Q04603 1-196 | 0.96 | 0.31 |  |
| B1 |  |  | binds |
